B1: 35O22 (antibody, V domains shown)
VH: QGQLVQSGAELKKPGASVKISCKTSGYRFNFYHINWIRQTAGRGPEWMGWISPYSGDKNLAPAFQDRVIMTTDTEVPVTSFTSTGAAYMEIRNLKFDDTGTYFCAKGLLRDGSSTWLPYLWGQGTLLTVSS
VL: QSVLTQSASVSGSLGQSVTISCTGPNSVCCSHKSISWYQWPPGRAPTLIIYEDNERAPGISPRFSGYKSYWSAYLTISDLRPEDETTYYCCSYTHNSGCVFGTGTKVSVL
B2: PentaNAb2.0 ScFv (10E8v4_S100cF-5X-35O22-5X-N6-5X-PGT121-5X-VRC26.25-His) (scFv)
scFv: SELTQDPAVSVALKQTVTITCRGDSLRSHYASWYQKKPGQAPVLLFYGKNNRPSGIPDRFSGSASGNRASLTITGAQAEDEADYYCSSRDKSGSRLSVFGGGTKLTVLGGGGSGGGGSGGGGSEVRLVESGGGLVKPGGSLRLSCSASGFDFDNAWMTWVRQPPGKGLEWVGRITGPGEGWSVDYAESVKGRFTISRDNTKNTLYLEMNNVRTEDTGYYFCARTGKYYDFWFGYPPGEEYFQDWGQGTLVIVSSGGGGSGGGGSGGGGSGGGGSGGGGSQSVLTQSASVSGSLGQSVTISCTGPNSVCCSHKSISWYQWPPGRAPTLIIYEDNERAPGISPRFSGYKSYWSAYLTISDLRPEDETTYYCCSYTHNSGCVFGTGTKVSVLGGGGSGGGGSGGGGSQGQLVQSGAELKKPGASVKISCKTSGYRFNFYHINWIRQTAGRGPEWMGWISPYSGDKNLAPAFQDRVIMTTDTEVPVTSFTSTGAAYMEIRNLKFDDTGTYFCAKGLLRDGSSTWLPYLWGQGTLLTVSSGGGGSGGGGSGGGGSGGGGSGGGGSYIHVTQSPSSLSVSIGDRVTINCQTSQGVGSDLHWYQHKPGRAPKLLIHHTSSVEDGVPSRFSGSGFHTSFNLTISDLQADDIATYYCQVLQFFGRGSRLHIKGGGGSGGGGSGGGGSRAHLVQSGTAMKKPGASVRVSCQTSGYTFTAHILFWFRQAPGRGLEWVGWIKPQYGAVNFGGGFRDRVTLTRDVYREIAYMDIRGLKPDDTAVYYCARDRSYGDSSWALDAWGQGTTVVVSAGGGGSGGGGSGGGGSGGGGSGGGGSSDISVAPGETARISCGEKSLGSRAVQWYQHRAGQAPSLIIYNNQDRPSGIPERFSGSPDSPFGTTATLTITSVEAGDEADYYCHIWDSRVPTKWVFGGGTTLTVLGGGGSGGGGSGGGGSQMQLQESGPGLVKPSETLSLTCSVSGASISDSYWSWIRRSPGKGLEWIGYVHKSGDTNYSPSLKSRVNLSLDTSKNQVSLSLVAATAADSGKYYCARTLHGRRIYGIVAFNEWFTYFYMDVWGNGTQVTVSSGGGGSGGGGSGGGGSGGGGSGGGGSQSVLTQPPSVSAAPGQKVTISCSGNTSNIGNNFVSWYQQRPGRAPQLLIYETDKRPSGIPDRFSASKSGTSGTLAITGLQTGDEADYYCATWAASLSSARVFGTGTKVIVLVGGGGSGGGGSGGGGSQVQLVESGGGVVQPGTSLRLSCAASQFRFDGYGMHWVRQAPGKGLEWVASISHDGIKKYHAEKVWGRFTISRDNSKNTLYLQMNSLRPEDTALYYCAKDLREDECEEWWSDYYDFGKQLPCAKSRGGLVGIADNWGQGTMVTVSSGSGHHHHHH

Target: HIV-1 Env of the 208-pseudovirus panel (Table 1)
Experiment: cell-based or functional assay

Binder | virus isolate coverage (neutralization breadth), 208-virus panel [%] | IC50 geomean, neutralization of 208-virus panel [ng/mL]
B1 | 45.2 | 
B2 | 99.6 | 6
